From the supplement of paper PMC7877785
± gives the uncertainty stated by the source.

Test: self-splicing fitness, log relative to wild type (ln ratio); higher = more splicing; Tetrahymena group I intron in knt gene, E. coli kanamycin selection, DiMSum; sequences stand for … in CUCUCU…GGAGGGAAAAGUUAUCAGGCAUGCACCUGGUAGCUAGUCUUUAAACCAAUAGAUUGCAUCGGUUUAAAAGGCAAGACCGUCAAAUUGCGGGAAAGGGGUCAACAGCCGUUCAGUACCAAGUCUCAGGGGAAACUUUGAGAUGGCCUUGCAAAGGGUAUGGUAAUAAGCUGACGGACAUGGUCCUAACCACGCAGCCAAGUCCUAAGUCAACAGAUCUUCUGUUGAUAUGGAUGCAGUUCACAGACUAAAUGUCGGUCGGGGAAGAUGUAUUCUUCUCAUAAGAUAUAGUCGGACCUCUCCUUAAUGGGAGCUAGCGGAUGAAGUGAUGCAACACUGGAGCCGCUGGGAACUAAUUUGUAUGCGAAAGUAUAUUGAUUAGUUUUGGAGUACUCGUGGUCG
Procedure, shortened: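 DiMSum derived fitness as the error-weighted combination of fold changes across replicates, kanamycin versus no kanamycin, normalised to wild type. E. coli BL21(DE3) held the library, which randomised all eight P1ex-region intron nucleotides within the knt kanamycin-resistance gene on pET-22b(+). Six replicate transformations grew overnight at 37°C or 30°C on LB agar with or without 25 μg/mL kanamycin, also containing 100 μg/mL carbenicillin, 50 μM IPTG and 0.2% rhamnose, and pooled colonies were amplicon-sequenced on an Illumina HiSeq 2500.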

| Sequence | self-splicing fitness (ln) (30 °C) | self-splicing fitness (ln) (37 °C) |
| --- | --- | --- |
| CGGCAGCAAUAUUACGCAGA | -3.27 ± 0.31 | -2.48 ± 0.22 |
| CGGCAGCAAUAUUACGCCAC | -2.97 ± 0.23 | -1.52 ± 0.3 |
| CGGCAGCAAUAUUACGCCAG | -1.53 ± 0.21 |  |
| CGGCAGCAAUAUUACGCCCC | -1.66 ± 0.31 | -0.44 ± 0.36 |
| CGGCAGCAAUAUUACGCCUC | -3.4 ± 0.27 | -1.59 ± 0.25 |
| CGGCAGCAAUAUUACGCGAA | -2.67 ± 0.13 | -1.68 ± 0.15 |
| CGGCAGCAAUAUUACGCGAC | -4.41 ± 0.42 | -1.36 ± 0.18 |
| CGGCAGCAAUAUUACGCUUC |  | -1.56 ± 0.29 |
| CGGCAGCAAUAUUACGGGAG | -2.36 ± 0.15 | -1.77 ± 0.18 |
| CGGCAGCAAUAUUACGGGAU | -3.24 ± 0.18 | -2.38 ± 0.23 |
| CGGCAGCAAUAUUACGGGUC | -2.95 ± 0.21 | -1.74 ± 0.22 |
| CGGCAGCAAUAUUACGGUCG | -3.51 ± 0.27 | -2.94 ± 0.33 |
| CGGCAGCAAUAUUACGUAGC | -4.16 ± 0.36 | -3.03 ± 0.24 |
| CGGCAGCAAUAUUACGUCAA | -1.53 ± 0.11 | -1.43 ± 0.13 |
| CGGCAGCAAUAUUACGUCAU | -2.83 ± 0.12 | -1.09 ± 0.092 |
| CGGCAGCAAUAUUACGUGCA | -1.03 ± 0.27 | -0.293 ± 0.23 |
| CGGCAGCAAUAUUACGUGGU | -4.44 ± 0.25 | -1.93 ± 0.12 |
| CGGCAGCAAUAUUACGUUAA | -2.44 ± 0.16 | -1.1 ± 0.11 |
| CGGCAGCAAUAUUACGUUAG | -0.86 ± 0.057 | 0.0318 ± 0.078 |
| CGGGAGCAAUAUUACGAAAG | -2.47 ± 0.42 | -2.55 ± 0.42 |
| CGGGAGCAAUAUUACGACAU | -4.013 ± 0.038 | -2.67 ± 0.046 |

| Sequence | self-splicing fitness (ln) (30 °C) | self-splicing fitness (ln) (37 °C) |
| --- | --- | --- |
| CGGGAGCAAUAUUACGACGA | -1.82 ± 0.36 |  |
| CGGGAGCAAUAUUACGAGCA | -3 ± 0.19 | -3.2 ± 0.31 |
| CGGGAGCAAUAUUACGCCAC | -3.63 ± 0.29 | -2.63 ± 0.41 |
| CGGGAGCAAUAUUACGCGAC | -3.85 ± 0.29 | -1.59 ± 0.36 |
| CGGGAGCAAUAUUACGCGGU |  | -1.72 ± 0.29 |
| CGGGAGCAAUAUUACGCUUU |  | -0.957 ± 0.27 |
| CGGGAGCAAUAUUACGGCAC | -3.74 ± 0.28 | -1.62 ± 0.23 |
| CGGGAGCAAUAUUACGGGAG | -2.76 ± 0.22 | -2.44 ± 0.3 |
| CGGGAGCAAUAUUACGGGGG | -2.37 ± 0.3 |  |
| CGGGAGCAAUAUUACGGUAG | -3.73 ± 0.29 | -2 ± 0.27 |
| CGGGAGCAAUAUUACGGUUG | -1.89 ± 0.44 |  |
| CGGGAGCAAUAUUACGUAGC | -2.26 ± 0.32 | -1.05 ± 0.22 |
| CGGGAGCAAUAUUACGUAUC | -2.58 ± 0.49 |  |
| CGGGAGCAAUAUUACGUCAA | -2.14 ± 0.19 | -2.79 ± 0.38 |
| CGGGAGCAAUAUUACGUCUU |  | -0.499 ± 0.36 |
| CGGGAGCAAUAUUACGUUGU | -4.45 ± 0.29 | -2.65 ± 0.26 |
| CGGUAGCAAUAUUACGAACC |  | -1.2 ± 0.31 |
| CGGUAGCAAUAUUACGAAUG | -0.573 ± 0.076 | 0.205 ± 0.097 |
| CGGUAGCAAUAUUACGACAU | -2.405 ± 0.019 | -1.38 ± 0.035 |
| CGGUAGCAAUAUUACGACCG | -2.88 ± 0.36 | -2.07 ± 0.42 |
| CGGUAGCAAUAUUACGACUG | -2.54 ± 0.28 | -1.86 ± 0.32 |
